Data reported in the RNAGym collection of RNA variant scans (doi:10.1073/pnas.2313332121).

B1: TPR t1 (parent)
chain: GACCAAUCUGCCCUCAGAGCUCGAGAACAUCUUCGGAUGCAGAGGAGGCAGGCUUCGGUGGCGCGAUAGCGCCAACGUCCUCAACCUCCAAUGCAUCCCACCACAUGAUGAUGCCUGAAGAGCCUUGGUUUUUUG

Variants of: B1
Experiment: polymerase ribozyme fitness, log enrichment relative to wild type (log ratio); higher = more active; in vitro selection for triplet polymerase activity
How it was run: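 Mutant libraries of both subunits of a heterodimeric triplet polymerase ribozyme were PCR-built, transcribed, and selected once in triplicate, with frozen incubation at −7 °C and capture of gel-excised extended constructs on streptavidin beads before RT-PCR. Illumina sequencing of input and output libraries was filtered to genotypes with ≥10 input reads and ≥1 read per output. Fitness is the logarithm of genotype enrichment over wild-type enrichment, using inverse-variance-weighted replicate averages. The logarithm is base 2.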
In the case of GACCAAUCUGCCCUCGGAGCUCGAGAACAUCUUCGGAUGCAGAGGAGGAAGGCUUCGGUGGCGCGAUGGCGCUAACGUCCUCAACCUCCAAUGCAUCCCACCACAUGAUGAUGCCUGAAGAGCCUUGGUUUUUUG, the “polymerase ribozyme fitness (log ratio)” value is reported as -4.78. With GACCAAUCUGCCCUCGGAGCUCGAGAACAUCUUCGGAUGCAGAGGAGGCAGGCUUCGGUGGCGCGAUAGCGCCAUCGUCCUCAACCUCCAAUGCAUCCCACCACAUGAUGAUGCCUGAAGAGUCUUGGUUUUUUG the “polymerase ribozyme fitness (log ratio)” value was -0.477. In the case of GACCAAUCUGCCCUUAGAGCUCGAGAACAUCUUCGGAUGCAGAGGAGGCAGGCUUCGGUGGCGCGAUAGCGCCAACGUCCUCAACCUCCAAUGCAUCCCACCACAUGAUGAUUCCUGAAGAGCCUUGGUUUUUUG, the “polymerase ribozyme fitness (log ratio)” value is reported as -3.92. For GACCAAUCUGCCCUCGGAGCUCGAGAACGUCUUCGGAUGCAGAAGAGGCAGGCUUCGGUGGCGCGAUAGCGCCAACGUCCUCAACCGCCAAUGCAUCCCACCACAUGAUGAUGCCUGAAGCGCCUUGGUUUUUUG, the “polymerase ribozyme fitness (log ratio)” value was -2.16. For GACCAAUCUGCCCUCCGAGCUCGAGAACAUCUUCGGAUGCAAAGGAGGCAGGCUUCGGUGGCGCGAUAGCGCCAACGUCCUCAACCUCCAAUGCAUCCCACCACAUGAUGAUGCCUGAAGAGCCUUGGUUUUUUG, the “polymerase ribozyme fitness (log ratio)” value was -3.47. With GACCAAUCUGCCCUCCGAGCUCGAGAACAUCUUCGGAUGCAGAGGAGGCAGGCUUCGGUGGCGCGAUAGCGACAACGUCCUCAACCUCCAAUGCAUCCCACCACAUGAUUAUGCCUGAAGAGCCUUGGUUUUUUG the “polymerase ribozyme fitness (log ratio)” value was -3.99. For GACCAAUCUGCCCUCCGAGCUCGAGAACAUCUUCGGAUGCAGAGGAGGCAGACUUCGGUGGCGCGAUAGCGCCAACGUCCUCAACCUCCAAUGCAUCCCACCACAUGAUGAUGCCUGAAGAGCCUUGGUUUUUUG, the “polymerase ribozyme fitness (log ratio)” value was -1.81. With GACCAAUCUGCCCUCCGAGCUCGAGAACAUCUUCGGAUGCAGAGGAGGUAGGCUUCGGUUGCGCGAUAGCGCCAACGACCUCAACCUCCAAUGCAUCCCACCACAUGAUGAUGCCUGAAGAGCCUUGGUUUUUUG the “polymerase ribozyme fitness (log ratio)” value was -3.42. For GACCAAUCUGCCCUUAGAGCUCGAGAACAUCUUCGGAUGCAGAGGAGGCAGGCUUCGGUGGCGCGAUAGCGCCAACGUCCGGAACCUCCAAUGCAUCCCACCACAUGAUGAUGCCUGAGUAGACUUGGUUUUUUG, the “polymerase ribozyme fitness (log ratio)” value was -0.519. With GACCAAUCUGCCCUCCGAGCUCGAGAACAUCUUCGGAUGCAGAGGAGGCAGGCUUCGGUGGCGCGAUAGCGCCAACGUCCUCAACCUCUAAUGCAUCCCACCACAAGAUGAUGCCUGAAGAGCCUUGGUUUUUUG the “polymerase ribozyme fitness (log ratio)” value was -2.64. With GACCAAUCUGCCCUCCGAGCUCGAGAACAUCUUCGGAUGCAGAGGAGGCAGGCUUCGGUGGCGCGAUAGCGCCAACGUCCUCAACCUCCAAUGCAUCCCACCACAUGAUGAUGCCUGAAGAGGCUUGGUUUUUUG the “polymerase ribozyme fitness (log ratio)” value was -0.273. In the case of GACCAAUCUGCCCUUAGAGCUCGAGAACAUCUUCGGAUGCAGAGGAGGCAGGCUUCGGUGGCGCGAUAGCGCCAACGUCCUCAACCACCAAUGCAUCCCACCACAUGAUGAUGCCUGAAGAGCCUUGGUUUUUUG, the “polymerase ribozyme fitness (log ratio)” value is reported as -2.53. With GACCAAUCUGCCCUCCGAGCUCGAGAACAUCUUCGGAUGCAGAGGAGGCAGGCUUCGGUGGCGCGAUAGCGCCAACGUCCUUAACCUCCAAUGCAUCCCACCACAUGAUAAUGCCUGAAGAGGCUUGGUUUAUUG the “polymerase ribozyme fitness (log ratio)” value was -4.33. In the case of GACCAAUCUGCCCUCCGAGCUCGAGAACAUCUUCGGAUGCAGAGGAGGCAGGCUUCGGUGGCGGGAUAUCGCCAACGUCCUCAACCUCCAAUGGAUCCCACCACAUGAUUAUGCCUGAAGAGCCUUGGUUUUUUG, the “polymerase ribozyme fitness (log ratio)” value is reported as -4.25. For GACCAAUCUGCCCUCCGAGCUCGAGAACAUCUUCGGAUGCAGAGGAGGCAGGCUUCGGUGGCGCGAUAGCGCCAACGUCCUCAACCUCCAAUGCAUCCCACCACAUGAUGAUGCCUGAAAAGCCUUGGUUUUUUG, the “polymerase ribozyme fitness (log ratio)” value was -2.28. In the case of GACCAAUCUGCCCUCCGAGCUCGAGAACAUCUUCGGAUGCAGAGCAGGCAGGCUUCGGAGGCGCGAUAGCGACAACGUCCUCAACCUCCAAUGCAUCCCACCACAUGAUGACGCCUGAAGAGCCUUGGUUUUUUU, the “polymerase ribozyme fitness (log ratio)” value is reported as -4.45. With GACCAAUCUGCCCUCCGAGCUCGAGAACAUCUUCGGAUGCAGAGGAGGCAGGUUUCGGUGGCGCGAUAGCGCCAACGUCCUCAACCUCCAAUGCAUCCCACCACAUGAUGAUGCCUGAAGAGCCUUGGUUUUUUG the “polymerase ribozyme fitness (log ratio)” value was -2.99. For GACCAAUCUGCCCUUAGAGCUCGAGAACAUCUUCGGAUGCAGAGGAGGCAGGCUUCGGUGGCGCGAUAGCGCCAACGUCCUCAACCUCCAAUGCAUCCCACCACAUGAUGAUGCCUGAAGAACCUUGGUUUUUUG, the “polymerase ribozyme fitness (log ratio)” value was -1.11. With GACCAAUCUGCCCUCCGAGUUCGAGAACAUCUUCGGAUGCAGAGGAGGCAGGCUUCGGUGGCGCGAUAGUGCCAACGUCCUCAACCUCCAAUGCAUCCCACCACAUGAUGAUGCCUGAAGAGCCUUGGUUUUUUG the “polymerase ribozyme fitness (log ratio)” value was -4.3. For GACCAAUCUGCCCUCCGAGCUCGAGAACAUCUUCGGAUGCAGAGGAGGCAGGCUUCGGUGGCGCGAUAGCGCCAACGUCCUCAACCUCCAAUGCAUCUCACCACAUGAUAAUGCCUGAAGAGCAUUGGUUUUUUG, the “polymerase ribozyme fitness (log ratio)” value was -4.72. In the case of GACCAAUCUGCCCUUAGAGCUCGAGAACAUCUUCGGAUGCAGAGGAGGCAGGCUUCGGUGGCGCGAUAGCGCCAACGUCCUCAACCUCCAAUGCAACCCACCACAUGAUGAUGCCUGAGGAGCCUUGGUUUUUUG, the “polymerase ribozyme fitness (log ratio)” value is reported as 0.622. In the case of GACCAAUCUGCCCUUAGAGCUCGAGAACAUCUUCGGAUGCAGAGGAGGCAGGCUUCGGUGGCGCGAUAGCGCCAACGUCCUCAACCUCCAAUGCAUCCCACCACAUGAUGAUGCCUGAAGAGCCUUGGUUUAUUG, the “polymerase ribozyme fitness (log ratio)” value is reported as -0.984. For GACCAAUCUGCCCUCCGAGCUCGAGAACAUCUUCGGAUGCAUAGGAGGCAGGCUUCCGUGGCGCGAUAGCGCCAACGUCCUCAACCUCCAAUGCAUCCCACCACAUGAUGAUGCCUGUAGAGCCUUGGUUUUUUG, the “polymerase ribozyme fitness (log ratio)” value was -2.43. With GACCAAUCUGCCCUCCGAGCUCGAGAACAUCUUCGGAUGCAGAGGAGGCAGGCUUGGGUGGCGCGAUAGCGCCAACUUCCUCAACCUCCAAUGCAUCCCACCACAUGAUGAUGCGUGAAGAGCCUUGGUUUUUUG the “polymerase ribozyme fitness (log ratio)” value was -3.78. In the case of GACCAAUCUGCCCUCCGAGCUCGAGAACAUCUUCGGAUGCAGAGGAGGCAGGCUUCGGUGGCGCGAUAGCGCCAACGUUCUCAACCACCAAUGCAUCCCACCACAUGAUGAUGCCUGAAGAGCUUUGGUUUUUUG, the “polymerase ribozyme fitness (log ratio)” value is reported as -0.106. In the case of GACCAAUCUGCCCUCCGAGCUCGAGAACAUCUUCGGAUGCAGAGGAGGCAGGCUUCGGUGGCGCGAUAGCGCCAACGUCCUCAACCACCAAUGCAUCCCACCACAUGAUGAUGCCUGAAGAGCCUUGGUUUUUUG, the “polymerase ribozyme fitness (log ratio)” value is reported as -2.49. In the case of GACCAAUCUGCCCUUAGAGCUCGAGAACAUCUUCGGAUGCAGAGGAGGCAGGCUUCGGUGGCGCGAUAUCGCCAACGCCCUCAACCUCCAAUGCAUCCCACCACAUGAUGAUGCCUGAAGAGCCUUGGUUUUUUG, the “polymerase ribozyme fitness (log ratio)” value is reported as -0.901. With GACCAAUCUGCCCUUAGAGCUCGAGAACAUCUUCGGAUGCAGAGGAGGCAGGCUUCGGUGGCGCGAUAGCUCCAACGUCCUCAACCUCCAAUGCAUCCCACCACAUGAUGAUGCCUGAAGAGCCUUGGUUUUUUG the “polymerase ribozyme fitness (log ratio)” value was -1.38. In the case of GACCAAUCUGCCCUUAGAGCUCGAGAACAUCUUCGGAUGCAGAGGAGGCAGGCUUCGGUGGCCCGAUAGCGCCAACGUCCUCAACCUCCAAUGCAUCCCACCACAUGAUGAUGCCUGAAGAGCCUUGGUUUUUUG, the “polymerase ribozyme fitness (log ratio)” value is reported as -2.18. In the case of GACCAAUCUGCCCUUAGAGCUCGAGAACAUCUUCGGAUGCAGAGGAGGCAGGCUUCGGUGGCGCAAUAUCGCCAACGUCCUCAACCGCCAAUGCAUCCCACCACAUGAUGAUGCCUGAAGAGCCUUGGUUUUUUG, the “polymerase ribozyme fitness (log ratio)” value is reported as -4.77. For GACCAAUCUGCCCUUAGAGCUCGAGAACAUCUUCGGAUGCAGAGGAGGCAGGCUUCGGUGGCGCGAUAGCGCCAACGUCCUCAACCUCCAAUGCAUCCCACCACAUGAUGAUGCCUGAAUAGCCUUGGUUUUUUG, the “polymerase ribozyme fitness (log ratio)” value was -0.697. With GACCAAUCUGCCCUUAGAGCUCGAGAACAUCUUCGGAUGCAGAGGAGGCAGGCUUCGGUGGCGCGAUAGCGCCAACGUCCUCAACCUCCAAUGCAUCCCACCACAUGAUGAUGCCUGAAAAGCCUUGGUUUUUUG the “polymerase ribozyme fitness (log ratio)” value was -1.08. For GACCAAUCUGCCCUCCGAGCUCGAGAACAUCUUCGGAUGCAGAGGAGGCAGGCUUCGGUGGCGCGAUAGCGCCAACGUCCUCAACCUCCAAUGCAUCCCACCACAUGAUGAUGCGUGAAGAGCCUUGGUUUUUUG, the “polymerase ribozyme fitness (log ratio)” value was -3.37. In the case of GACCAAUCUGCCCUUAGAGCUCGAGAACAUCUUCGGAUGCAGAGGAGGCAGGCUUCGGUGGCACGAUAGCGCCAACGUACUCAACCUCCAAUGCAUUCCACCACAUGAUGAGGCCUGAAGAGCCUUGGUUUUUUG, the “polymerase ribozyme fitness (log ratio)” value is reported as -4.94. In the case of GACCAAUCUGCCCUCGGAGCUCGAGAACAUCUUCGGAUGCAGAGGAGGCAGGCUUCGGUGGCGCGAUAGCGCCAACGUCCUCAACCUCCAAUGCAUCCCACCACAUGAUGAUGCCUGAAGAGCCUUGGUUUUUUG, the “polymerase ribozyme fitness (log ratio)” value is reported as -0.761. With GACCAAUCUGCCCUCCGAGCUCGAGAACAUCUUCGGAUGCAGAGGAGGCAGGCUUCGGUGGCGCGAUAGCGCCAACGUCCUCAACCUCCAAUGCAUCCCACCACAUGAUGAUGCCUGAAGAGCCUUGGUUUUUUG the “polymerase ribozyme fitness (log ratio)” value was -2.19. With GACCAAUCUGCCCUCCGAGCUCGAGAACAUCUUCGGAUGCAGAGGAGGGAGGCUUCGGUGGCGCGAUAGCGCCAACGUCCUCAACCUCCAAUGCAUCCCAACACAUGAUGAUGCCUGAAGAGCCUUGGUUUUUUG the “polymerase ribozyme fitness (log ratio)” value was -4.66. With GACCAAUCUGCCCUCGGAGCUCGAGAACAUCUUCGGAUGGAGAGGAGGCAGGCUUCGGUGGCGCGAUAGCGCCAACGUCCUCAACCUCCAAUGCAUCCCACCACAUGAUGAUGCCUGAAGAGCCUUGGUUUUUUG the “polymerase ribozyme fitness (log ratio)” value was -0.424. In the case of GACCAAUCUGCCCUUAGAGCUCGAGAACAUCUUCGGAUGCAGAGGAGGCAGGCAUCGGUGGCGCGAUAGCGCCAACGUCAUCAACCUCCAAUGCAUCCCACCACAUGAUGAUGCCUGAAGAGCCUUGGUUUUUUG, the “polymerase ribozyme fitness (log ratio)” value is reported as -4.07. For GACCAAUCUGCCCUCCGAGCUCGAGAACAUCUUCGGAUGCAGAGGAGGCAGGCUUCGGUGGCGCGAUAGCGACAACGUCCUCAACCUCCAAUGCAUCCCACCACAUGAUGAUGCCUGAAGAGCCUUGGUUUUUUG, the “polymerase ribozyme fitness (log ratio)” value was -3.3. For GACCAAUCUGCCCUCGGAGCUCGAGAACAUCUUCGGAUGAAGAGGAGGCAGGCUUCGGUGGCGCGAUAGCGCCAACGUCCUCAACUUCCUCUGCAUCCCACCACAAGAUGAGGCCUGAAGAGCCUUGGUUUUUUG, the “polymerase ribozyme fitness (log ratio)” value was -4.19. For GACCAAUCUGCCCUUAGAGCUCGAGAACAUCUUCGGAUGCAGAGGAGGCAGGCUUCGGUGGCGCGAUAGCGCCAACGUCCUCAACCUCCAAUACAUCCCACCACAUGAUGAUGCCUGAAGAGCCUUGGUUUUUUG, the “polymerase ribozyme fitness (log ratio)” value was -1.99.
